Target: IL10 receptor (IL10R) (human) (UniProt Q13651)
Experiment: cell-based or functional assay

Sequence of IL10 receptor (IL10R) (human) (Q13651 22-578, chain 1 of 2): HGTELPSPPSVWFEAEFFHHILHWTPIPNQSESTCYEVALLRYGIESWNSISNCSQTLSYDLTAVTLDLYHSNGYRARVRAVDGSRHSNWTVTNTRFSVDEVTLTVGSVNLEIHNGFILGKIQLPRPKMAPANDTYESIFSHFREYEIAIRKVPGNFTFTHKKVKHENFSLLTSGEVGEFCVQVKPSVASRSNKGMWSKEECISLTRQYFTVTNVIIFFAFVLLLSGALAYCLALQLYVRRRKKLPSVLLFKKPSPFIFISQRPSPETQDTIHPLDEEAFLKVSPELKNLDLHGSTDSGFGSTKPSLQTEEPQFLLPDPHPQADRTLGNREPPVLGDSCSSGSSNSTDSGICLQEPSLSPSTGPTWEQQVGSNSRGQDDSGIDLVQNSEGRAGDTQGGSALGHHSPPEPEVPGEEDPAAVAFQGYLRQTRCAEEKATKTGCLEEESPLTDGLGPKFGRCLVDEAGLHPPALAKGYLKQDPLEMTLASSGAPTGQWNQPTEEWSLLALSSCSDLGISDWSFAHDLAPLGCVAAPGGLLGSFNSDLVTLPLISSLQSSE
Sequence of IL10 receptor (IL10R) (human) (Q08334 20-325, chain 2 of 2, further chain): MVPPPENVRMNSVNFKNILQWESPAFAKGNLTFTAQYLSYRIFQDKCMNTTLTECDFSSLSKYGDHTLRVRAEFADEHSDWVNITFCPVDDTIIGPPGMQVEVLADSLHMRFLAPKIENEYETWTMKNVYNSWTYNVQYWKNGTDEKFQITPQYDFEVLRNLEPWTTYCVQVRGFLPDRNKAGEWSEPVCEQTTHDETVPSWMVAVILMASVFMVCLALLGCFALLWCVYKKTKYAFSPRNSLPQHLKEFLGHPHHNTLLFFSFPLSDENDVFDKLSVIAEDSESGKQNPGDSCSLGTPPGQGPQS

- pSTAT3 MFI, B cells, 0.0001 nM (unstimulated 1193.5): 1160 MFI
- pSTAT3 MFI, B cells, 0.001 nM (unstimulated 1193.5): 1140 MFI
- pSTAT3 MFI, B cells, 0.01 nM (unstimulated 1193.5): 1220 MFI
- pSTAT3 MFI, B cells, 0.1 nM (unstimulated 1193.5): 1780 MFI
- pSTAT3 MFI, B cells, 1 nM (unstimulated 1193.5): 3950 MFI
- pSTAT3 MFI, B cells, 10 nM (unstimulated 1193.5): 3930 MFI
- pSTAT3 MFI, B cells, 100 nM (unstimulated 1045): 2400 MFI
- pSTAT3 MFI, B cells, 100 nM (unstimulated 1193.5): 2620 MFI
- pSTAT3 MFI, CD4+ T cells, 100 nM (unstimulated 1778): 9660 MFI
- pSTAT3 MFI, CD4 T cells, 0.0001 nM (unstimulated 1887): 1970 MFI
- pSTAT3 MFI, CD4 T cells, 0.001 nM (unstimulated 1887): 1880 MFI
- pSTAT3 MFI, CD4 T cells, 0.01 nM (unstimulated 1887): 2220 MFI
- pSTAT3 MFI, CD4 T cells, 0.1 nM (unstimulated 1887): 5170 MFI
- pSTAT3 MFI, CD4 T cells, 1 nM (unstimulated 1887): 10700 MFI
- pSTAT3 MFI, CD4 T cells, 10 nM (unstimulated 1887): 10800 MFI
- pSTAT3 MFI, CD4 T cells, 100 nM (unstimulated 1887): 9560 MFI
- pSTAT3 MFI, CD8+ T cells, 100 nM (unstimulated 1288): 8810 MFI
- pSTAT3 MFI, CD8 T cells, 0.0001 nM (unstimulated 1446): 1700 MFI
- pSTAT3 MFI, CD8 T cells, 0.001 nM (unstimulated 1446): 1430 MFI
- pSTAT3 MFI, CD8 T cells, 0.01 nM (unstimulated 1446): 1720 MFI
- pSTAT3 MFI, CD8 T cells, 0.1 nM (unstimulated 1446): 4300 MFI
- pSTAT3 MFI, CD8 T cells, 1 nM (unstimulated 1446): 8890 MFI
- pSTAT3 MFI, CD8 T cells, 10 nM (unstimulated 1446): 9890 MFI
- pSTAT3 MFI, CD8 T cells, 100 nM (unstimulated 1446): 9010 MFI
- pSTAT3 MFI, Monocytes, 0.0001 nM (unstimulated 2116): 2050 MFI
- pSTAT3 MFI, Monocytes, 0.001 nM (unstimulated 2116): 2140 MFI
- pSTAT3 MFI, Monocytes, 0.01 nM (unstimulated 2116): 2840 MFI
- pSTAT3 MFI, Monocytes, 0.1 nM (unstimulated 2116): 9550 MFI
- pSTAT3 MFI, Monocytes, 1 nM (unstimulated 2116): 28900 MFI
- pSTAT3 MFI, Monocytes, 10 nM (unstimulated 2116): 30900 MFI
- pSTAT3 MFI, Monocytes, 100 nM (unstimulated 1787): 27100 MFI
- pSTAT3 MFI, Monocytes, 100 nM (unstimulated 2116): 26600 MFI
- pSTAT3 MFI, NK cells, 0.0001 nM (unstimulated 1315): 1310 MFI
- pSTAT3 MFI, NK cells, 0.001 nM (unstimulated 1315): 1270 MFI
- pSTAT3 MFI, NK cells, 0.01 nM (unstimulated 1315): 1380 MFI
- pSTAT3 MFI, NK cells, 0.1 nM (unstimulated 1315): 2280 MFI
- pSTAT3 MFI, NK cells, 1 nM (unstimulated 1315): 4620 MFI
- pSTAT3 MFI, NK cells, 10 nM (unstimulated 1315): 5700 MFI
- pSTAT3 MFI, NK cells, 100 nM (unstimulated 1149): 4380 MFI
- pSTAT3 MFI, NK cells, 100 nM (unstimulated 1315): 4790 MFI
Substance: wild-type human IL10 (wt hIL10) (from UniProt P22301 19-178) (ligand)
